Measured values as given in patent US20180057601A1 (PIERRE FABRE MEDICAMENT, published 2018).

Assays:
Peptide_010 = target: T1, Peptide_010; experiment: peptide microarray: immobilized 15-mer peptides, Cy5 anti-human IgG; signal as ratio to control antibody ch9G4
T1 construct: immobilized on the microarray
T1 peptide: CACNETDNSCKVCCR
Description: (§1) Peptide micro array epitope characterization was performed by JPT Peptide Technologies GmbH, Berlin, Germany. In brief the analysis was performed as follows: 32-linear 15-meric peptide sequences representing an overlapping peptide scan (15/12) through the ADAM17 membrane proximal domain were synthesized (Table 5) and immobilized on microarray slides four additional peptides were included by JPT as internal process control spots. Moreover, human IgG and mouse IgG were co-immobilized on the microarray to serve as assay controls. Furthermore, rhADAM17 protein was co-immobilized as an additional control.
(§2) The assay was performed using a Multiwell incubation chamber. Microarrays were incubated with 100 μg/ml 1022C3 or control antibody ch9G4 diluted in blocking buffer (Pierce International, Superblock TBS T20, order No 37536) overnight at 4° C. Microarrays were then incubated with 1 μg/ml Cy5 labelled secondary antibody (anti-human IgG, JIR, 109-175-098) diluted in blocking buffer for 60 min at 30° C. Microarrays were dried. Before each step microarrays were washed with washing buffer (50 mM TBS-buffer, 0.1% Tween20 (v/v), pH 7.2).
(§3) Microarrays were scanned using a high resolution fluorescence scanner. Laser settings and applied resolution were identical for all performed measurements. The resulting images were analyzed and quantified using spot-recognition software GenePix (Molecular Devices). For each spot, the mean signal intensity was extracted (between 0 and 65535 arbitrary units). The ration of signal intensity between 1022C3 and the control antibody ch9G4 was compared between multiple experiments and peptides with a signal three fold higher 1022C3 than ch9G4 were identified (FIG. 3).

Peptide_008 = target: T2, Peptide_008; experiment: as above
T2 construct: immobilized on the microarray
T2 peptide: EQQLESCACNETDNS
Description: as §1, §2, §3

Peptide_004 = target: T3, Peptide_004; experiment: as above
T3 construct: immobilized on the microarray
T3 peptide: CKDGKCIPFCEREQQ
Description: as §1, §2, §3

Peptide_001 = target: T4, Peptide_001; experiment: as above
T4 construct: immobilized on the microarray
T4 peptide: DTVCLDLGKCKDGKC
Description: as §1, §2, §3

Peptide_006 = target: T5, Peptide_006; experiment: as above
T5 construct: immobilized on the microarray
T5 peptide: IPFCEREQQLESCAC
Description: as §1, §2, §3

Peptide_029 = target: T6, Peptide_029; experiment: as above
T6 construct: immobilized on the microarray
T6 peptide: VIERFWDFIDQLSIN
Description: as §1, §2, §3

Peptide_032 = target: T7, Peptide_032; experiment: as above
T7 construct: immobilized on the microarray
T7 peptide: IDQLSINTFGKFLAD
Description: as §1, §2, §3

Peptide_007 = target: T8, Peptide_007; experiment: as above
T8 construct: immobilized on the microarray
T8 peptide: CEREQQLESCACNET
Description: as §1, §2, §3

Peptide_018 = target: T9, Peptide_018; experiment: as above
T9 construct: immobilized on the microarray
T9 peptide: VDAEQKNLFLRKGKP
Description: as §1, §2, §3

Peptide_012 = target: T10, Peptide_012; experiment: as above
T10 construct: immobilized on the microarray
T10 peptide: DNSCKVCCRDLSGRC
Description: as §1, §2, §3

Peptide_025 = target: T11, Peptide_025; experiment: as above
T11 construct: immobilized on the microarray
T11 peptide: DMNGKCEKRVQDVIE
Description: as §1, §2, §3

Peptide_030 = target: T12, Peptide_030; experiment: as above
T12 construct: immobilized on the microarray
T12 peptide: RFWDFIDQLSINTFG
Description: as §1, §2, §3

Peptide_021 = target: T13, Peptide_021; experiment: as above
T13 construct: immobilized on the microarray
T13 peptide: LRKGKPCTVGFCDMN
Description: as §1, §2, §3

Peptide_009 = target: T14, Peptide_009; experiment: as above
T14 construct: immobilized on the microarray
T14 peptide: LESCACNETDNSCKV
Description: as §1, §2, §3

Peptide_023 = target: T15, Peptide_023; experiment: as above
T15 construct: immobilized on the microarray
T15 peptide: CTVGFCDMNGKCEKR
Description: as §1, §2, §3

Peptide_031 = target: T16, Peptide_031; experiment: as above
T16 construct: immobilized on the microarray
T16 peptide: DFIDQLSINTFGKFL
Description: as §1, §2, §3

Peptide_024 = target: T17, Peptide_024; experiment: as above
T17 construct: immobilized on the microarray
T17 peptide: GFCDMNGKCEKRVQD
Description: as §1, §2, §3

Peptide_005 = target: T18, Peptide_005; experiment: as above
T18 construct: immobilized on the microarray
T18 peptide: GKCIPFCEREQQLES
Description: as §1, §2, §3

Peptide_014 = target: T19, Peptide_014; experiment: as above
T19 construct: immobilized on the microarray
T19 peptide: CCRDLSGRCVPYVDA
Description: as §1, §2, §3

Peptide_028 = target: T20, Peptide_028; experiment: as above
T20 construct: immobilized on the microarray
T20 peptide: VQDVIERFWDFIDQL
Description: as §1, §2, §3

Peptide_026 = target: T21, Peptide_026; experiment: as above
T21 construct: immobilized on the microarray
T21 peptide: GKCEKRVQDVIERFW
Description: as §1, §2, §3

Peptide_016 = target: T22, Peptide_016; experiment: as above
T22 construct: immobilized on the microarray
T22 peptide: GRCVPYVDAEQKNLF
Description: as §1, §2, §3

Peptide_022 = target: T23, Peptide_022; experiment: as above
T23 construct: immobilized on the microarray
T23 peptide: GKPCTVGFCDMNGKC
Description: as §1, §2, §3

Peptide_019 = target: T24, Peptide_019; experiment: as above
T24 construct: immobilized on the microarray
T24 peptide: EQKNLFLRKGKPCTV
Description: as §1, §2, §3

Peptide_027 = target: T25, Peptide_027; experiment: as above
T25 construct: immobilized on the microarray
T25 peptide: EKRVQDVIERFWDFI
Description: as §1, §2, §3

Peptide_011 = target: T26, Peptide_011; experiment: as above
T26 construct: immobilized on the microarray
T26 peptide: NETDNSCKVCCRDLS
Description: as §1, §2, §3

Peptide_015 = target: T27, Peptide_015; experiment: as above
T27 construct: immobilized on the microarray
T27 peptide: DLSGRCVPYVDAEQK
Description: as §1, §2, §3

[1] = target: ADAM17 at the plasma membrane of A431 cells (human, UniProt P78536 215-824); experiment: cell-based or functional assay
Chain of ADAM17 at the plasma membrane of A431 cells (P78536 215-824 limits assumed): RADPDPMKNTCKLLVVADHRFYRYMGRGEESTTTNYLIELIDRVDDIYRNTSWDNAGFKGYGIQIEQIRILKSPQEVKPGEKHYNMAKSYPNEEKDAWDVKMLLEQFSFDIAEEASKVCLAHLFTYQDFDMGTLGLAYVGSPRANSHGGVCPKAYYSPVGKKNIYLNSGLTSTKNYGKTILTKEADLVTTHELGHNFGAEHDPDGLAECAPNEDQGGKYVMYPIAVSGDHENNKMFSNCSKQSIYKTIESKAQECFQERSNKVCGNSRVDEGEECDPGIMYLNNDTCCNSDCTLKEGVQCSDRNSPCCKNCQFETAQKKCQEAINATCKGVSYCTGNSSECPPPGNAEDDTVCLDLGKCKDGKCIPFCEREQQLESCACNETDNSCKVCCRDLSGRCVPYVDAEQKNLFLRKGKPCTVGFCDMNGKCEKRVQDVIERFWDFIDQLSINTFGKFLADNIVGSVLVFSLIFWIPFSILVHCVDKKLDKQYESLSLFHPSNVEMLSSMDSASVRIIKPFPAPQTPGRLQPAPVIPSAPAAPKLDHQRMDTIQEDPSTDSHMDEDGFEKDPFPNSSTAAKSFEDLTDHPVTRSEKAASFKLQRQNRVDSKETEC

B1: hz1022C3 (antibody, V domains shown)
VH: QVQLQESGPGLVKPSETLSLTCTVSGFSLDTSGMGVSWIRQPAGKGLEWIGHIYWDDDKRYNPSLKSRVTMSKDTSSNQVSLKLSSVTAADTAVYYCARRSHFGNYYYAMDYWGQGTTVTVSS
VL: DIQMTQSPSSLSASVGDRVTITCRASQDISSYLNWYQQKPGKAPKLLIFYTSRLQSGVPSRFSGSGSGTDFTLTISSLQPEDFATYYCQQGKTLPLTFGGGTKVEIK
notes: also called mAb hz1022C3; anti-ADAM17 mAb (hz1022C3)
- binding result (Peptide_010): no binding (tested: 100 µg/ml)
- binding result (Peptide_008): no binding (tested: 100 µg/ml)
- binding result (Peptide_004): no binding (tested: 100 µg/ml)
- binding result (Peptide_001): no binding (tested: 100 µg/ml)
- binding result (Peptide_006): no binding (tested: 100 µg/ml)
- binding result (Peptide_029): no binding (tested: 100 µg/ml)
- binding result (Peptide_032): no binding (tested: 100 µg/ml)
- binding result (Peptide_007): no binding (tested: 100 µg/ml)
- binding result (Peptide_018): no binding (tested: 100 µg/ml)
- binding result (Peptide_012): no binding (tested: 100 µg/ml)
- binding result (Peptide_025): no binding (tested: 100 µg/ml)
- binding result (Peptide_030): no binding (tested: 100 µg/ml)
- binding result (Peptide_021): no binding (tested: 100 µg/ml)
- binding result (Peptide_009): no binding (tested: 100 µg/ml)
- binding result (Peptide_023): no binding (tested: 100 µg/ml)
- binding result (Peptide_031): no binding (tested: 100 µg/ml)
- binding result (Peptide_024): no binding (tested: 100 µg/ml)
- binding result (Peptide_005): no binding (tested: 100 µg/ml)
- binding result (Peptide_014): no binding (tested: 100 µg/ml)
- binding result (Peptide_028): no binding (tested: 100 µg/ml)
- binding result (Peptide_026): no binding (tested: 100 µg/ml)
- binding result (Peptide_016): no binding (tested: 100 µg/ml)
- binding result (Peptide_022): no binding (tested: 100 µg/ml)
- binding result (Peptide_019): no binding (tested: 100 µg/ml)
- binding result (Peptide_027): no binding (tested: 100 µg/ml)
- binding result (Peptide_011): no binding (tested: 100 µg/ml)
- binding result (Peptide_015): no binding (tested: 100 µg/ml)
- IC50 of inhibition of cellular shedding of (mutated pro-)TNFα-Nluc [1]: 0.16 nM
- IC50 of inhibition of cellular shedding of AREG-Nluc from A431 cells [1]: 0.16 nM
- IC50 of inhibition of cellular shedding of HB-EGF-Nluc from A431 cells [1]: 0.19 nM
- IC50 of inhibition of cellular shedding of TGFα-Nluc from A431 cells [1]: 0.12 nM
- IC50 of inhibition of cellular shedding, mean of the four substrates [1]: 0.16 nM
